Measurements published in US20080166345A1, “MEDICAMENTS COMPRISING GENE RECOMBINANT ANTIBODY AGAINST GANGLIOSIDE GD3” (KYOWA HAKKO KOGYO CO., LTD., priority 2001, published 2008).

Experiment: GD3 binding ELISA of transient expression (COS-7) culture supernatants
Settings: COS-7 culture supernatant; FIG. 14, FIG. 17
Description: Each ganglioside (2 nmol) was dissolved in […] of ethanol solution containing 10 μg of dipalmitoylphosphatidylcholine (manufactured by SIGMA) and 5 μg of cholesterol (manufactured by SIGMA). In each well of a 96 well plate for ELISA (manufactured by Greiner), 20 μl of the solution (becomes 20 pmol/well) or 20 μl of the solution diluted with ethanol was respectively dispensed, followed by air-drying, and then PBS containing 1% BSA (hereinafter referred to as “1% BSA-PBS”) was added in 100 μl/well and allowed to react at room temperature for 1 hour to thereby block remaining active groups. After discarding 1% BSA-PBS, culture supernatants of transformants or diluted solutions of humanized antibodies were added in 50 μl/well and allowed to react at room temperature for 1 hour. […] After the reaction and subsequent washing with Tween-PBS, an ABTS substrate solution (a solution prepared by dissolving 0.55 g of 2,2′-azinobis(3-ethylbenzothiazoline-6-sulfonic acid) in 1 L of 0.1 M citrate buffer (pH 4.2) and adding 1 μl/ml hydrogen peroxide just before the use) was added in 50 μl/well for color development and the absorbance at 415 nm (hereinafter referred to as “OD415”) was measured. […]

B1: pT641HLCDR: anti-GD3 CDR-grafted antibody by transient expression; VH hKM641H (SEQ ID NO:9), VL hKM641L (SEQ ID NO:10) (antibody, V domains shown)
VH: EVQLVESGGDFVQPGGSLRVSCAASGFAFSHYAMSWVRQAPGKGLEWVAYISSGGSGTYYSDSVKGRFTISRDNSKNTLYLQMRSLRAEDSAVYFCTRVKLGTYYFDSWGQGTLLTVSS
VL: DIQMTQSPSSLSASVGDRVTITCSASQDISNYLNWYQQKPDKAPKLLIFYSSNLHSGVPSRFSGGGSGTDYTLTISSLQPEDIATYFCHQYSKLPWTFGQGTKVEIKR
  relative activity (%) of binding to GD3 when the activity of anti-GD3 chimeric antibody is defined as 100: about 5%
